Laboratory results taken from US12356911B2, “Group of UDP-glycosyltransferase for catalyzing carbohydrate chain elongation and application thereof” (GSYNBIOT (SHANGHAI) CO., LTD, priority 2017, dated 2025).

B1: GT29-19: Ginseng UDP-glycosyltransferase, 442 amino acids, SEQ ID NO: 116 (protein)
chain: MDNQEGRISIALLPFLAHGHISPFFELAKQLAKRNCNVFLCSTPINLSSIKNKDSSASIKLVELHLPSSPDLPPHYHTTNGLPSHLMVPLINAFETAGPTFSEILKTLNPDLLIYDFNPSWAPEIASSHNIPAVYFLTTAAASSSIGLHAFKNPGEKYPFPDFYDNSNNTPEPPSADNMKLLHDFIACFERSCDIILIKSFIELEGKYIDLLSTLSDKTLVPVGPLVQDPMGHNEDPKTEQIINWLDKRAESTVVFVCFGSEYFLSNEELEEVAIGLEISMVNFIWAVRLIEGEKKGVLPEGFVQRVGDRGLVVEGWAPQARILGHSSTGGFVSHCGWSSITESMKFGVPVIAMARHFDQPLNAKLAAEVGVGMEVVRDENGKYKREDIAGVIRKVVVEKSGEVIRRKARELSEKMKEIGEQLIDRAVEELVQICKKKKDEQ
modifications: misc_feature - GT29-19; Panax ginseng
B2: GT29-23: Ginseng UDP-glycosyltransferase, 442 amino acids, SEQ ID NO: 124 (protein)
chain: MDNQEGRISIALLPFLAHGHISPFFELAKQLAKRNCNVFLCSTPINLSSIKNKDSSASIKLVELHLPSSPDLPPHYHTTNGLPSHLMVPLINAFETAGPTFSEILKTLNPDLLIYDFNPSWAPEIASSHNIPAVYFLTTAAASSSIGLHAFKNPGEKYPFPDFYDNSNNTPEPPSADNMKLLHDFIACFERSCDIILIKSFIELEGKYIDLLSTLSDKTLVPVGPLVQDPMGHNEDPKTEQIINWLDKRAESTVVFVCFGSEYFLSNEELEEVAIGLEISMVNFIWAVRLIEGEKKGVLPEGFVQRVGDRGLVVEGWAPHARILGHSSTGGFVSHCGWSSIAESMKFGVPVIAMARHLDQPLNGKLAAEVGVGMEVVRDENGKYKREGIAEVIRKVVVEKSGEVMRRKARELSEKMKEKGEEEIDRAVEELVQICKKKKDAQ
modifications: misc_feature - GT29-23; Panax ginseng
B3: GT29-42: Ginseng UDP-glycosyltransferase, 444 amino acids, SEQ ID NO.: 94 (protein)
chain: MDNQEGRISIALLPFLAHGHISPFFELAKQLAKRNCNVFLCSTPINLSSIKNKDSSASIKLVELHLPSSPDLPPHYHTTNGLPSHLMVPLINAFETAGPTFSEILKTLNPDLLIYDFNPSWAPEIASSHNIPAVYFLTTAAASSSIGLHAFKNPGEKYPFPDFYDNSNNTPEPPSADNMKLLHDFIACFERSCDIILIKSFIELEGKYIDLLSTLSDKTLVPVGPLVQDPMGHNEDPKTEQIINWLDKRAESTVVFVCFGSEYFLSNEELEEVAIGLEISMVNFIWAVRLIEGEKKGVLPEGFVQRVGDRGLVVEGWAPQARILGHSSTGGFVSHCGWSSIMESVKFGVPVIAMARHLDQPLNAKLAAEVGVGMEVMRDENGKYKREAIAEVIRKVVMEKNGEVMRRKARELSEKMKVKGEQEIGRAVEELVQICKKKKQHAQY
modifications: Panax ginseng
B4: GT29-20: Ginseng UDP-glycosyltransferase, 442 amino acids, SEQ ID NO: 118 (protein)
chain: MDNQKGRISIALLPFLAHGHISPFFELAKQLAKRNCNVFLCSTPINLSSIKDKDSSASIKLVELHLPSSPDLPPHYHTTNGLPSHLMLPLRNAFETAGPTFSEILKTLNPDLLIYDFNPSWAPEIASSHNIPAVYFLTTAAASSSIGLHAFKNPGEKYPFPDFYDNSNITPEPPSADNMKLLHDFIACFERSCDIILIKSFRELEGKYIDLLSTLSDKTLVPVGPLVQDPMGHNEDPKTEQIINWLDKRAESTVVFVCFGSEYFLSNEELEEVAIGLEISTVNFIWAVRLIEGEKKGILPEGFVQRAGDRGLVVEGWAPQARILGHSSTGGFVSHCGWSSIAESMKFGVPVIAMARHLDQPLNGKLAAEVGVGMEVVRDENGKYKREGIAEVIRKVVVEKSGEVIRRKARELSEKMKEKGEQEIDRALEELVQICKKKKDEQ
modifications: misc_feature - GT29-20; Panax ginseng
B5: GT29-36: Ginseng UDP-glycosyltransferase, 442 amino acids, SEQ ID NO.: 90 (protein)
chain: MDNQKGRISIALLPFLAHGHISPFFELAKQLAKRNCNVFLCSTPINLSSIKDKDSSASIKLVELHLPSSPDLPPHYHTTNGLPSHLMLPLRNAFETAGPTFSEILKTLNPDLLIYDFNPSWAPEIASSHNIPAVYFLTTAAASSSIGLHAFKNPGEKYPFPDFYDNSNITPEPPSADNMKLLHDFIACFERSCDIILIKSFRELEGKYIDLLSTLSDKTLVPVGPLVQDPMGHNEDPKTEQIINWLDKRAESTVVFVCFGSEYFLSNEELEEVAIGLEISMVNFIWAVRLIEGEKKGVLPEGFVQRVGDRGLVVEGWAPQARILGHSSTGGFVSHCGWSSIAESMKFGVPVIAMARHLDQPLNGKLAAEVGVGMEVVRDENGKYKREGIAEVIRKVVVEKSGEVMRRKARELSEKMKEKGEEEIDRAVEELVQICKKKKDAQ
modifications: Panax ginseng
B6: GT29-22: Ginseng UDP-glycosyltransferase, 442 amino acids, SEQ ID NO: 122 (protein)
chain: MDNQKGRISIALLPFLAHGHISPFFELAKQLAKRNCNVFLCSTPINLSSIKDKDSSASIKLVELHLPSSPDLPPHYHTTNGLPSHLMLPLRNAFETAGPTFSEILKTLNPDLLIYDFNPSWAPEIASSHNIPAVYFLTTAAASSSIGLHAFKNPGEKYPFPDFYDNSNITPEPPSADNMKLLHDFIACFERSCDIILIKSFRELEGKYIDLLSTLSDKTLVPVGPLVQDPMGHNEDPKTEQIINWLDKRAESTVVFVCFGSEYFLSNEELEEVAIGLEISTVNFIWAVRLIEGEKKGILPEGFVQRVGDRGLVVEGWAPQARILGHSSTGGFVSHCGWSSIAEIMKFGVPVIAMARHLDQPLNGKLAAEVGVGMEVVRDENGKYKREGIAEVIRKVVVEKSGEVIRRKARELSEKMKEKGEQEIDRALEELVQICKKKKDEQ
modifications: misc_feature - GT29-22; Panax ginseng
B7: GT29-21: Ginseng UDP-glycosyltransferase, 442 amino acids, SEQ ID NO: 120 (protein)
chain: MDNQKGRISIALLPFLANGHISPFFELAKQLAKRNCNVFLCSTPINLSSIKDKDSSASIKLVELHLPSSPDLPPHYHTTNGLPSHLMLPLRNAFETAGPTFSEILKTLNPDLLIYDFNPSWAPEIASSHNIPAVYFLTTAAASSSIGLHAFKNPGEKYPFPDFYDNSNITPEPPSADNMKLLHDFIACFERSCDIILIKSFRELEGKYIDLLSTLSDKTLVPVGPLVQDPMGHNEDPKTEQIINWLDKRAESTVVFVCFGSEYFLSNEELEEVAIGLEISTVNFIWAVRLIEGEKKGILPEGFVQRVGDRGLVVEGWAPQARILGHSSIGGFVSHCGWSSIAESMKFGVPVIAMARHLDQPLNGKLAAEVGVGMEVVRDENGKYKREGIAEVIRKVVVEKSGEVIRRKARELSEKMKEKGEQEIDRALEELVQICKKKKDEQ
modifications: misc_feature - GT29-21; Panax ginseng
B8: GT29-37: Ginseng UDP-glycosyltransferase, 442 amino acids, SEQ ID NO.: 92 (protein)
chain: MDNQEGRISIALLPFLAHGHISPFFELAKQLAKRNCNVFLCSTPINLSSIKNKDSSASIKLVELHLPSSPDLPPHYHTTNGLPSHLMVPLINAFETAGPTFSEILKTLNPDLLIYDFNPSWAPEIASSHNIPAVYFLTTAAASSSIGLHAFKNPGEKYPFPDFYDNSNITPEPPSADNMKLLHDFIACFERSCDIILIKSFRELEGKYIDLLSTLSDKTLVPVGPLVQDPMGHNEDPKTEQIINWLDKRAESTVVFVCFGSEYFLSNEELEEVAIGLEISTVNFIWAVRLIEGEKKGILPEGFVQRVGDRGLVVEGWAPQARILGHSSTGGFVSHCGWSSIAESMKFGVPVIAMARHLDQPLNGKLAAEVGVGMEVVRDENGKYKREGIAEVIRKVVVEKSGEVIRRKARELSEKMKEKGEQEIDRALEELVQICKKKKDEQ
modifications: Panax ginseng

Columns and labels:
[1] = In vitro transglycosylation at C-3, Rd as glycosyl acceptor, UDP-xylose as donor; type: biochemical; conditions: crude enzyme (E. coli lysate supernatant); TLC, FIG. 14
[2] = In vitro transglycosylation at C-3, Rh2 as glycosyl acceptor, UDP-glucose as donor; type: biochemical; conditions: crude enzyme (E. coli lysate supernatant); TLC, FIG. 13, FIG. 15
Description: Cell lysate of recombinant E. coli with empty vector pET28a was used as a control.

Molecule	product formation from Rd and UDP-xylose (replacement of second glucose at C-3 with xylose) [1]	product formation from Rh2 and UDP-glucose (Rg3) [2]
B1	can all catalyze the replacement of the second glucose at C-3 position of Rd with xylose	can all catalyze the extension of a glucosyl at the C-3 glycosyl of Rh2 to generate Rg3
B2	can all catalyze the replacement of the second glucose at C-3 position of Rd with xylose	can all catalyze the extension of a glucosyl at the C-3 glycosyl of Rh2 to generate Rg3
B3	can all catalyze the replacement of the second glucose at C-3 position of Rd with xylose	can all catalyze the extension of a glucosyl at the C-3 glycosyl of Rh2 to generate Rg3
B4	can all catalyze the replacement of the second glucose at C-3 position of Rd with xylose	can all catalyze the extension of a glucosyl at the C-3 glycosyl of Rh2 to generate Rg3
B5	can all catalyze the replacement of the second glucose at C-3 position of Rd with xylose	can all catalyze the extension of a glucosyl at the C-3 glycosyl of Rh2 to generate Rg3
B6	can all catalyze the replacement of the second glucose at C-3 position of Rd with xylose	can all catalyze the extension of a glucosyl at the C-3 glycosyl of Rh2 to generate Rg3
B7	can all catalyze the replacement of the second glucose at C-3 position of Rd with xylose	can all catalyze the extension of a glucosyl at the C-3 glycosyl of Rh2 to generate Rg3
B8	can all catalyze the replacement of the second glucose at C-3 position of Rd with xylose	can all catalyze the extension of a glucosyl at the C-3 glycosyl of Rh2 to generate Rg3
